This test addresses Kcnj13 (Kir7.1) from D. rerio fused to mCherry (D. rerio). In words: mass photometry; OneMP mass photometer (Refeyn), buffer E, sample diluted 1:10 immediately before analysis, mass calibrated with NativeMark; protein solubilised in DDM with CHS.

As for “Kcnj13 (Kir7.1) from D. rerio fused to mCherry (natural protein)”, the stoichiometry N (commonly the number of molecules, sites or subunits per partner or assembly) worked out at 4.

For the origin of these results see PMC10482006.
